These are literature values, as cited in article PMC9900175.

The data set deals with CD200R (Homo sapiens) (UniProt Q8TD46).
UniProt Q8TD46, sequence (Q8TD46 25-265): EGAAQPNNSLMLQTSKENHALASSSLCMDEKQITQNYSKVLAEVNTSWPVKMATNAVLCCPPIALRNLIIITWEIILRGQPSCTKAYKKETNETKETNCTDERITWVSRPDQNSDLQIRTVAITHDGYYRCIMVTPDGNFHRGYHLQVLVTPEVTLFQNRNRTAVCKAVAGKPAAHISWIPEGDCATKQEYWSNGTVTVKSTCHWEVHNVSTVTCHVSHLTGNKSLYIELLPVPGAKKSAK

As for CD200 (from UniProt P41217), the Kd was 500 nM.
